From publication PMC3853416, “Structural and functional characterisation of the methionine adenosyltransferase from Thermococcus kodakarensis” (BMC Structural Biology, 2013) come the findings set out here.

Substrate in data set [1]: CSCC[C@H](N)C(=O)O
Put plainly: HPLC (SCX column) detection of SAM formed. In kind it is biochemical, Thermococcus kodakarensis. Conditions: co-substrate ATP (10 mM in standard assay), 0.1 M Tris-HCl, 0.02 M MgCl2, 0.2 M KCl, pH 8.0, 37 °C. The text has this:
(§1) HPLC (SCX column) detection of SAM formed on TkMAT

Substrate in data set [2]: Nc1ncnc2c1ncn2[C@@H]1O[C@H](COP(=O)(O)OP(=O)(O)OP(=O)(O)O)[C@@H](O)[C@H]1O
Put plainly: HPLC (SCX column) detection of SAM formed. Format: biochemical, Thermococcus kodakarensis. The settings on record: co-substrate L-methionine (10 mM in standard assay), 0.1 M Tris-HCl, 0.02 M MgCl2, 0.2 M KCl, pH 8.0, 37 °C.
Excerpt: as §1

Data set [3] deals with the molecule itself. Put plainly: SEC; Superdex 200 prep grade, XK 16/70 column; 2 mL of 5 mg/mL protein; 40 mM Tris-HCl, 150 mM NaCl, pH 8.0; 1 mL/min; column calibrated with proteins of known size.

B1: methionine adenosyltransferase from Thermococcus kodakarensis (enzyme, UniProt Q5JF22 1-405, looked up)
chain: MAGKVRNIVVEELVRTPVEMQKVELVERKGIGHPDSIADGIAEAVSRALSREYVKRYGIILHHNTDQVEVVGGRAYPQFGGGEVIKPIYILLSGRAVEMVDREFFPVHEIALKAAKDYLRKAVRHLDLEHHVIIDSRIGQGSVDLVGVFNKAKKNPIPLANDTSFGVGYAPLSETEKIVLETEKYLNSDEFKKKYPAVGEDIKVMGLRKGDEIDLTIAAAIVDSEVDNPDDYMAVKEAIYEAAKGIVESHTERPTNIYVNTADDPKEGIYYITVTGTSAEAGDDGSVGRGNRVNGLITPNRHMSMEAAAGKNPVSHVGKIYNILSMLIANDIAEQVEGVEEVYVRILSQIGKPIDEPLVASVQIIPKKGYSIDVLQKPAYEIADEWLANITKIQKMILEDKVNVF
notes: methionine adenosyltransferase (S-adenosylmethionine synthase) of Thermococcus kodakarensis, gene cloned from genomic DNA into pET28a(+); the printed gene length (1155 bp) and primers may not fit this gene; Homodimer in solution by size exclusion chromatography; No removal of the His-tag is described; also called TkMAT; MAT
Turning to B1, the results for the Km in data set [1] and in data set [2] were 0.31 ± 0.07 mM and 6.54 ± 2.49 mM, respectively. In data set [3], the “stoichiometry N” value stood at 2.
